Among the data in publication PMC5602543 are stoichiometry N (FLAG-Cap-tVP3 molecules per one particle) and stoichiometry N values, retold here.

Test [1] addresses MPyV VP1 (major capsid protein of mouse polyomavirus) as VLPs of the VarB structure (mouse polyomavirus (MPyV)) (UniProt P03090). The test is described as follows: co-purification with VLPs (SDS-PAGE, Western blot, band densitometry); VP1 and FLAG-Cap-tVP3 co-expressed in insect cells; purified VLPs VarB resolved by SDS-PAGE, anti-FLAG blot; densities of Coomassie-stained bands measured.

The target of test [2] is VarC (VP1-Cap-His: entire PCV2b Cap fused to the C-terminus of MPyV VP1) (mouse polyomavirus (MPyV) | porcine circovirus 2b (PCV2b)) (UniProt P03090). The test is described as follows: native gel or EMSA; blue native PAGE (BN-PAGE) of purified VarC, native 3-12% gradient gel, Gelcode staining. On the technique in general: In EMSA bound probe runs differently from free probe, usually more slowly.

The substance “FLAG-Cap-tVP3 (entire PCV2b Cap fused with truncated MPyV minor capsid protein VP3)” returned a stoichiometry N (FLAG-Cap-tVP3 molecules per one particle) in test [1] of 12. In test [1] (scale: molecules of Cap protein per one VLP), this substance gave a stoichiometry N of 14.
With “VarC (VP1-Cap-His: entire PCV2b Cap fused to the C-terminus of MPyV VP1) (from UniProt P03090 1-383)”, the stoichiometry N in test [2] turned out to be 10.

One may read the stoichiometry N as the number of molecules, sites or subunits per partner or assembly.
